{"source": "paper PMC6563369", "about": "“Systematic unravelling of the inulin hydrolase from Bacillus amyloliquefaciens for efficient conversion of inulin to poly-(γ-glutamic acid)” (Biotechnology for Biofuels, 2019)", "test_in_all_cases": "DNS reducing sugar assay, Lineweaver-Burk", "type_in_all_cases": "biochemical, Bacillus amyloliquefaciens", "conditions_in_all_cases": "50 mM PBS pH 7.5, 55 °C, 20 min", "key": {"[1]": {"substrate": "OC[C@H]1O[C@H](OC[C@H]2O[C@H](OC[C@H]3O[C@H](O[C@]4(CO)O[C@H](CO)[C@@H](O)[C@@H]4O)[C@H](O)[C@@H](O)[C@@H]3O)[C@H](O)[C@@H](O)[C@H]2O)[C@H](O)[C@@H](O)[C@H]1O", "from_the_text": "(§1) DNS reducing sugar assay, Lineweaver-Burk on CscA (inulin hydrolase)"}, "[2]": {"substrate": "OC[C@H]1O[C@H](OC[C@H]2O[C@H](O[C@]3(CO)O[C@H](CO)[C@@H](O)[C@@H]3O)[C@H](O)[C@@H](O)[C@@H]2O)[C@H](O)[C@@H](O)[C@H]1O", "from_the_text": "as §1"}, "[3]": {"substrate": "OC[C@H]1O[C@@](CO)(O[C@H]2O[C@H](CO)[C@@H](O)[C@H](O)[C@H]2O)[C@@H](O)[C@@H]1O", "from_the_text": "as §1"}}, "data": [{"protein": "CscA (inulin hydrolase) (Bacillus amyloliquefaciens DSM 7 = ATCC 23350) (protein, full-length ORF (1470 bp, 489 residues, no signal peptide), pET-28a BamHI/XhoI, His-tagged, expressed in E. coli BL21(DE3), Ni-NTA) MDRIQQAEEALKKAEGKVKQRYRLGYHIMPRANWINDPNGLIQFKGEYHVFFQHHPFDENWGPMHWGHVKSKDLIHWEHLPIALAPGDAFDQSGCFSGSAVDDRGRLVLIYTGHNMIDPEKDLFYQTQNIAVSQDGAVFEKLQDNPVIAEPPEDSSRHFRDPKVWKHRGDWYMVVGNSTKENVGRVILYRSSDLRNWEYAGVLAQSDGHLGYMWECPDFFELGGKHVLLISPQGIEADGDSYKNLHQTGYLIGDYNDETNKFTHGAFKELDHGHDFYAVQTLLDDKGRRIAVGWMDMWESEMPTKADGWCGALTLPRELTLRDDHKLLMNPVEETKQLRKMKYRECAGRSVSGSYLAKTSEELLEVQVVYDVNDCDAETAGIKIRGLDEEELVLKYNLTDKKLTLDCTKMGKAKDGVRRVRMDASGKLALRIFIDRSSIEVFANHGEATMTSRIYPKEGRLGLELFSEKGAVKVEEFTYWTLKDIWKKS", "values": [{"measurement": "Km", "setting": "[1]", "result": "19.08 ± 0.09", "unit": "mM"}, {"measurement": "Vmax", "setting": "[1]", "result": 687, "unit": "µmol/min/mg"}, {"measurement": "kcat/Km", "setting": "[1]", "result": "36500 ± 667", "unit": "M⁻¹ s⁻¹"}, {"measurement": "Km", "setting": "[2]", "result": "12.25 ± 0.07", "unit": "mM"}, {"measurement": "Vmax", "setting": "[2]", "result": 724, "unit": "µmol/min/mg"}, {"measurement": "kcat/Km", "setting": "[2]", "result": "57500 ± 1330", "unit": "M⁻¹ s⁻¹"}, {"measurement": "Km", "setting": "[3]", "result": "4.33 ± 0.03", "unit": "mM"}, {"measurement": "Vmax", "setting": "[3]", "result": 1760, "unit": "µmol/min/mg"}, {"measurement": "kcat/Km", "setting": "[3]", "result": "398000 ± 20000", "unit": "M⁻¹ s⁻¹"}]}]}
